The source of these data is paper doi:10.1101/820381v1 (biorxiv, 2019).

The target in data set [1] is T1, OPR3 (12-oxophytodienoic acid reductase 3) (Arabidopsis thaliana, UniProt Q9FUP0). The data set can be described thus: intrinsic Trp fluorescence quenching. It is filed as binding. The following applies: 0.75 µmol/L OPR3, 40 mmol/L KPi pH 7.2, 25°C.
The target in data set [2] is T1, OPR3 (12-oxophytodienoic acid reductase 3). The following applies: NADPH co-substrate, 40 mmol/L KPi pH 7.2, 25°C, aerobic.
For the next data set, the system named is O=C1C=CCC1. Kind of data set: purified protein. The following applies: pH 7.2; 25.0 °C.
The subject of data set [3] is [O]C1=C(O)[C@@H]([C@@H](O)CO)OC1=O. The data set can be described thus: purified protein. The following applies: pH 7.8.
The subject of data set [4] is CC/C=C\C[C@@H]1C(=O)C=C[C@@H]1CCCCCCCC(=O)O. The data set can be described thus: purified protein. To be noted: pH 7.2; 25.0 °C.

T1 sequence (Q9FUP0 whole entry): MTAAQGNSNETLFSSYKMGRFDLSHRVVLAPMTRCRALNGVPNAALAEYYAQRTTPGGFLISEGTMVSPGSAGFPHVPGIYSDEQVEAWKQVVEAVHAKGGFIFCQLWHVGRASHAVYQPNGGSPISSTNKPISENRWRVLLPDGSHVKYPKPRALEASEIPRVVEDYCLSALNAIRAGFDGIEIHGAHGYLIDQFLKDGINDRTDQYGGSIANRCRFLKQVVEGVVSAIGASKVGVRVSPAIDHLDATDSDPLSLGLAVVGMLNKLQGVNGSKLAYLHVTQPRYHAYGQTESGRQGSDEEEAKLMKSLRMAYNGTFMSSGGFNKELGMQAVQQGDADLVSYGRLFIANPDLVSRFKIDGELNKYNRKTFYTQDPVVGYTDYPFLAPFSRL

Turning to `CC/C=C\C[C@@H]1C(=O)C=C[C@@H]1CCCCCCCC(=O)O` [12-OPDA], the “% quenching at 607 μmol/L” value in data set [1] is 54.0±0.4%.

By Km is commonly meant the substrate concentration at which the rate is half of its maximum. As to `C=CC(C)=O` [MVK], in data set [2], the Michaelis constant (Km) came out at 38.5 ± 14 µM.

Take “OPR3 (12-oxophytodienoic acid reductase 3) (Arabidopsis thaliana)”: the Km in the data set on O=C1C=CCC1 was determined as 1967 ± 825 µM; in data set [3], 1 µM; in data set [4], 28.3 ± 8.5 µM.
